Laboratory results from paper PMC12174366 (Nature Communications, 2025).

Molecular target: the molecule itself
Test: cryo-EM structure

B1: full length human TRPML1 with the V432A/A433G mutations (natural protein, UniProt Q9GZU1 1-580, looked up)
chain: MTAPAGPRGSETERLLTPNPGYGTQAGPSPAPPTPPEEEDLRRRLKYFFMSPCDKFRAKGRKPCKLMLQVVKILVVTVQLILFGLSNQLAVTFREENTIAFRHLFLLGYSDGADDTFAAYTREQLYQAIFHAVDQYLALPDVSLGRYAYVRGGGDPWTNGSGLALCQRYYHRGHVDPANDTFDIDPMVVTDCIQVDPPERPPPPPSDDLTLLESSSSYKNLTLKFHKLVNVTIHFRLKTINLQSLINNEIPDCYTFSVLITFDNKAHSGRIPISLETQAHIQECKHPSVFQHGDNSFRLLFDVVVILTCSLSFLLCARSLLRGFLLQNEFVGFMWRQRGRVISLWERLEFVNGWYILLVTSDVLTISGTIMKIGIEAKNLASYDVCSILLGTSTLLVWVGVIRYLTFFHNYNILIATLRVALPSVMRFCCCAGVIYLGYCFCGWIVLGPYHVKFRSLSMVSECLFSLINGDDMFVTFAAMQAQQGRSSLVWLFSQLYLYSFISLFIYMVLSLFIALITGAYDTIKHPGGAGAEESELQAYIAQCQDSPTSGKFRRGSGSACSLLCCCGRDPSEEHSLLVN
binding result: binds
